Test [1] concerns the target protein PADI4 (peptidylarginine deiminase 4) antigen (human) (UniProt Q9UM07). In words: sandwich ELISA, capture 197, dilution row B.
The target of test [2] is protein PADI2 (UniProt Q9Y2J8). In words: sandwich ELISA, capture 197, dilution row B. (An ELISA detects its analyte on a solid surface through an enzyme-linked reagent.)
In test [3] the target is protein PADI4 (peptidylarginine deiminase 4) antigen (human) (UniProt Q9UM07). In words: sandwich ELISA, capture 197, dilution row E.
Test [4] concerns the target protein PADI2 (UniProt Q9Y2J8). In words: sandwich ELISA, capture 197, dilution row E.
Test [5] addresses protein PADI4 (peptidylarginine deiminase 4) antigen (human) (UniProt Q9UM07). In words: sandwich ELISA, capture 197, dilution row D.
Test [6] has as its target protein PADI2 (UniProt Q9Y2J8). In words: sandwich ELISA, capture 197, dilution row D.
Test [7] addresses protein PADI4 (peptidylarginine deiminase 4) antigen (human) (UniProt Q9UM07). In words: sandwich ELISA, capture 197, dilution row G.
In test [8] the target is protein PADI2 (UniProt Q9Y2J8). In words: sandwich ELISA, capture 197, dilution row G.
Test [9] concerns the target protein PADI4 (peptidylarginine deiminase 4) antigen (human) (UniProt Q9UM07). In words: sandwich ELISA, capture 197, dilution row C.
Test [10] addresses protein PADI2 (UniProt Q9Y2J8). In words: sandwich ELISA, capture 197, dilution row C.
Test [11] concerns the target protein PADI4 (peptidylarginine deiminase 4) antigen (human) (UniProt Q9UM07). In words: sandwich ELISA, capture 197, dilution row A.
Test [12] addresses protein PADI2 (UniProt Q9Y2J8). In words: sandwich ELISA, capture 197, dilution row A.
The target of test [13] is protein PADI4 (peptidylarginine deiminase 4) antigen (human) (UniProt Q9UM07). In words: sandwich ELISA, capture 197, dilution row F.
The target in test [14] is protein PADI2 (UniProt Q9Y2J8). In words: sandwich ELISA, capture 197, dilution row F.
Test [15] addresses protein PADI4 (peptidylarginine deiminase 4) antigen (human) (UniProt Q9UM07). In words: sandwich ELISA, capture 197, dilution row H (maybe blank).
Test [16] has as its target protein PADI2 (UniProt Q9Y2J8). Described as above.

Chain of UniProt Q9Y2J8 (Q9Y2J8 whole entry): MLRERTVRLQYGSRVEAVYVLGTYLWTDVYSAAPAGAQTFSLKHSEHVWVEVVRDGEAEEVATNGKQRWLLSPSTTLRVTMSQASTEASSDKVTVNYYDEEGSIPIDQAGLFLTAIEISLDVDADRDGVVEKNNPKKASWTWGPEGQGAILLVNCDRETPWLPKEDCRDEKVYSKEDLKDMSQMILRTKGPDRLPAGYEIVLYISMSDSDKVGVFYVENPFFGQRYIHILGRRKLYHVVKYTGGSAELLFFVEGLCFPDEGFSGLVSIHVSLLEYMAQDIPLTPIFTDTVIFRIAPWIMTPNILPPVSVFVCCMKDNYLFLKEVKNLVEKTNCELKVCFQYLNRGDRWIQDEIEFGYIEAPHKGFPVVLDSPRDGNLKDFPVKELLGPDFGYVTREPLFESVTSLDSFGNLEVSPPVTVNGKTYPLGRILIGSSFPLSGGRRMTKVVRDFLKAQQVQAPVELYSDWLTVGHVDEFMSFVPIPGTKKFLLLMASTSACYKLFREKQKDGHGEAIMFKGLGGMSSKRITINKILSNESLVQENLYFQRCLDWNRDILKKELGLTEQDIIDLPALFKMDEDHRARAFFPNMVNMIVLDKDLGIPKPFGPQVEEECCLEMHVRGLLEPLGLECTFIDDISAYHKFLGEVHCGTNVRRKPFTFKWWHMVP

B1: monoclonal antibody 135-B9 (antibody, human IgG1, kappa, V domains shown)
VH: EVKLQESGPGILQPSQTLSLTCSFSGFSLSTSGMCVGWIRQPSGKGLEWLAHIWWDDDKRYNPALKSRLTISKDTSSNQVFLKIASVDTADTATYYCARYYRFDEGFDYWGQGTTLTVSS
VL: DIVITQDELSNPVTLGTSASISCRSSKSLLHSDGITYLYWYLQKPGQSPQLLIYQMSNLASGVPDRFSSSGSGTDFTLRISRVEAEDVGVYYCAQNLELPLTFGAGTKLELKR
In the case of B1, the OD in test [1] is 3.95 OD; with protein PADI2 [2], 0.05 OD; in [3], 1.69 OD; in the test with protein PADI2 [4], 0.05 OD; in test [5], 2.47 OD; in the test with protein PADI2 [6] it was 0.05 OD. The OD is 0.46 OD in test [7]; 0.05 OD in the test with protein PADI2 [8]; 3.53 OD in test [9]; 0.05 OD with protein PADI2 [10]; 4.13 OD in test [11]; 0.06 OD with protein PADI2 [12]. Besides, the OD was 0.92 OD in [13], 0.05 OD with protein PADI2 [14], 0.04 OD in [15] and 0.06 OD with protein PADI2 [16].

The record behind these values is patent publication US20220268777A1.
